Here are results for 16 substances from IntAct's records for PubMed 17891150.

Sequence of Protein argonaute-2 (Homo sapiens), Q9UKV8 R583A (Q9UKV8 whole entry R583A): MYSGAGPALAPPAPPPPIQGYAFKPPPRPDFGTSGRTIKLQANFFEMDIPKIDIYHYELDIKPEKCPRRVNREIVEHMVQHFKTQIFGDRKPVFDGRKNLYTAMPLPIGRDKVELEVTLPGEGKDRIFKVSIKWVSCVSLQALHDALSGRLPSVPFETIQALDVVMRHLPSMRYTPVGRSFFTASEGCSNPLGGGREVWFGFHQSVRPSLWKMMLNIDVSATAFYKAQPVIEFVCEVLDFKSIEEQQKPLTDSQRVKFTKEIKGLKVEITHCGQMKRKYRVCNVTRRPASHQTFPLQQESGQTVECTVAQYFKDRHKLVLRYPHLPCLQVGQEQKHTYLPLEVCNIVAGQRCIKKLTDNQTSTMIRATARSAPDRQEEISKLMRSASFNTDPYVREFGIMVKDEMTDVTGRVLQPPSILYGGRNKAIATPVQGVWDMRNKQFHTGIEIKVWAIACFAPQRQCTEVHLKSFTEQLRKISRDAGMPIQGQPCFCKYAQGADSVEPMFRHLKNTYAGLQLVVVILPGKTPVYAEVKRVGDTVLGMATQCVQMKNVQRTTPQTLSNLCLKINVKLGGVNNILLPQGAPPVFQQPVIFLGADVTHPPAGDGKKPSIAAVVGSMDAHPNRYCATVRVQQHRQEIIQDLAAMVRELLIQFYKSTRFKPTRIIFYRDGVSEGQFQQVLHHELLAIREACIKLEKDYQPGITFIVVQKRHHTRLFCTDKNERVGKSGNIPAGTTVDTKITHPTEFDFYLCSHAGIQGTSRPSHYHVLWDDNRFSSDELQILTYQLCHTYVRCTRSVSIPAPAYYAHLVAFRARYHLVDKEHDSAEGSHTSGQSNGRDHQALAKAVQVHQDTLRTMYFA
Sequence of Protein argonaute-2 (Homo sapiens), Q9UKV8 Y784A (Q9UKV8 whole entry Y784A): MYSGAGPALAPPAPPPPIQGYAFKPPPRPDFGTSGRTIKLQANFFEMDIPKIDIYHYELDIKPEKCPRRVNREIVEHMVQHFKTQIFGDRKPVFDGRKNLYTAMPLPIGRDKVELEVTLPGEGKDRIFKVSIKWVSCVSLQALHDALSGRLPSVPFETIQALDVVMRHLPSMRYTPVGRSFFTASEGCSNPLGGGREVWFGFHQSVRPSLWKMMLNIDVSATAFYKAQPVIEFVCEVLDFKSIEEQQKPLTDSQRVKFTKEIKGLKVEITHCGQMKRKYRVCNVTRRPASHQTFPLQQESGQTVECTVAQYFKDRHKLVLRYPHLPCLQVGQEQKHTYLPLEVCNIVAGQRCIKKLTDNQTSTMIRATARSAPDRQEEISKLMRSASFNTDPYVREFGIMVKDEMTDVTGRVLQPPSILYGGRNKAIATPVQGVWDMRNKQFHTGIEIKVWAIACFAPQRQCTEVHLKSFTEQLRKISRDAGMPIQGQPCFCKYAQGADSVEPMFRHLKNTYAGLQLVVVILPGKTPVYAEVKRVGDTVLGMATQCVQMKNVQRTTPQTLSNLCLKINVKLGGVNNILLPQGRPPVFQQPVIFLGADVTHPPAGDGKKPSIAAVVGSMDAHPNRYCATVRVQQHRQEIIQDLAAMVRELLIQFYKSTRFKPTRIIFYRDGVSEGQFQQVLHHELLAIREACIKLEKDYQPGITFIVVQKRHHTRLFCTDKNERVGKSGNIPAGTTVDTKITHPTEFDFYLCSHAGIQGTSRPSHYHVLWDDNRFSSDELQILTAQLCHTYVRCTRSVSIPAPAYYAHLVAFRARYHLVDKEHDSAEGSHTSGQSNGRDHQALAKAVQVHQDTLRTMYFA
Sequence of Protein argonaute-2 (Homo sapiens), Q9UKV8 F653A (Q9UKV8 whole entry F653A): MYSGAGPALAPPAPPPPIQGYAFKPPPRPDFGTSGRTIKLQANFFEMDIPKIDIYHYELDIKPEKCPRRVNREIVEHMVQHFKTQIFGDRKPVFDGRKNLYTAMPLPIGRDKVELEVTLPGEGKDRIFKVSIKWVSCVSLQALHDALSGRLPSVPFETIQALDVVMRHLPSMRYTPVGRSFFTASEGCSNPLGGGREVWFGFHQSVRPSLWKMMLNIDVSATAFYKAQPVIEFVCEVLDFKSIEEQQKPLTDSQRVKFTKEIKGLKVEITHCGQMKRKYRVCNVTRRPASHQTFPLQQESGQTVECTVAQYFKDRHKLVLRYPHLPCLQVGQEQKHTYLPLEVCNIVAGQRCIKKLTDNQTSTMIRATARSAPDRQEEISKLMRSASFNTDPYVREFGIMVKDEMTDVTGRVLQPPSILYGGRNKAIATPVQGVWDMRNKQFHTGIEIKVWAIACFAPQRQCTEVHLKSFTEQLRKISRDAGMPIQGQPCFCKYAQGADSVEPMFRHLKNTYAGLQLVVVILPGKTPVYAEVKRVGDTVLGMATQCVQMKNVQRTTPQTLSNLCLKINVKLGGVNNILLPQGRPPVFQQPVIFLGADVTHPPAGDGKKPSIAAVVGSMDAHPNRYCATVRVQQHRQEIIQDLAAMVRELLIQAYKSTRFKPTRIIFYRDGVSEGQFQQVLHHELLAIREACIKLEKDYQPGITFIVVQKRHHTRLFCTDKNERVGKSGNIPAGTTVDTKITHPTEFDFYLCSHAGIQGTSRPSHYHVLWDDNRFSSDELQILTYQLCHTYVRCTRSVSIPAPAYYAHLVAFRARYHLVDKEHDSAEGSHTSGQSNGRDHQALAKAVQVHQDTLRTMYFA
Sequence of Protein argonaute-2 (Homo sapiens), Q9UKV8 V797A (Q9UKV8 whole entry V797A): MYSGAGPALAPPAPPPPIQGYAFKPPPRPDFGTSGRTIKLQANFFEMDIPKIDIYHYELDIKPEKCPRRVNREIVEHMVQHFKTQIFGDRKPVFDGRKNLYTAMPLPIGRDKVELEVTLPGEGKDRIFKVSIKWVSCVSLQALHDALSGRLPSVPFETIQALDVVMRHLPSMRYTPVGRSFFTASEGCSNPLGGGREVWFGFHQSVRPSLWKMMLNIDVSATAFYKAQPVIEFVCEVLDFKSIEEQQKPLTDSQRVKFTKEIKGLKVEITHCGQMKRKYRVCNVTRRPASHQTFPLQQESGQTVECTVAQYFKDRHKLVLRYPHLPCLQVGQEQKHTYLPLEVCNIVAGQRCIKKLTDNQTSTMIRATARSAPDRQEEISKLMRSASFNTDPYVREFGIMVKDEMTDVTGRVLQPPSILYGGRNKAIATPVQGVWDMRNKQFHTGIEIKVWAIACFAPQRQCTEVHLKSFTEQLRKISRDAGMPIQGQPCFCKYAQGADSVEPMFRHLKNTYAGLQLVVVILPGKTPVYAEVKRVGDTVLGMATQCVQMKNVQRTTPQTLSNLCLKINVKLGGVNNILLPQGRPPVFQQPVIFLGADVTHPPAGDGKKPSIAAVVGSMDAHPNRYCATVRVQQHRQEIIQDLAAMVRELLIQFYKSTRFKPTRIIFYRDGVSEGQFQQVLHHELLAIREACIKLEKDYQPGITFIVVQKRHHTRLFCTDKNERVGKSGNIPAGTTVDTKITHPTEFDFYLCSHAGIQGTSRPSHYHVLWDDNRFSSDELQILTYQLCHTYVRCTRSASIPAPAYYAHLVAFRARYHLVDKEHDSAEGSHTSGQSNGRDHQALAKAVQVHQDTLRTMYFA

The target in this assay is TNRC6B, Q9UPQ9-2.
Sequence of TNRC6B, Q9UPQ9-2 (Q9UPQ9 other isoform, or with tags, fused parts or gaps): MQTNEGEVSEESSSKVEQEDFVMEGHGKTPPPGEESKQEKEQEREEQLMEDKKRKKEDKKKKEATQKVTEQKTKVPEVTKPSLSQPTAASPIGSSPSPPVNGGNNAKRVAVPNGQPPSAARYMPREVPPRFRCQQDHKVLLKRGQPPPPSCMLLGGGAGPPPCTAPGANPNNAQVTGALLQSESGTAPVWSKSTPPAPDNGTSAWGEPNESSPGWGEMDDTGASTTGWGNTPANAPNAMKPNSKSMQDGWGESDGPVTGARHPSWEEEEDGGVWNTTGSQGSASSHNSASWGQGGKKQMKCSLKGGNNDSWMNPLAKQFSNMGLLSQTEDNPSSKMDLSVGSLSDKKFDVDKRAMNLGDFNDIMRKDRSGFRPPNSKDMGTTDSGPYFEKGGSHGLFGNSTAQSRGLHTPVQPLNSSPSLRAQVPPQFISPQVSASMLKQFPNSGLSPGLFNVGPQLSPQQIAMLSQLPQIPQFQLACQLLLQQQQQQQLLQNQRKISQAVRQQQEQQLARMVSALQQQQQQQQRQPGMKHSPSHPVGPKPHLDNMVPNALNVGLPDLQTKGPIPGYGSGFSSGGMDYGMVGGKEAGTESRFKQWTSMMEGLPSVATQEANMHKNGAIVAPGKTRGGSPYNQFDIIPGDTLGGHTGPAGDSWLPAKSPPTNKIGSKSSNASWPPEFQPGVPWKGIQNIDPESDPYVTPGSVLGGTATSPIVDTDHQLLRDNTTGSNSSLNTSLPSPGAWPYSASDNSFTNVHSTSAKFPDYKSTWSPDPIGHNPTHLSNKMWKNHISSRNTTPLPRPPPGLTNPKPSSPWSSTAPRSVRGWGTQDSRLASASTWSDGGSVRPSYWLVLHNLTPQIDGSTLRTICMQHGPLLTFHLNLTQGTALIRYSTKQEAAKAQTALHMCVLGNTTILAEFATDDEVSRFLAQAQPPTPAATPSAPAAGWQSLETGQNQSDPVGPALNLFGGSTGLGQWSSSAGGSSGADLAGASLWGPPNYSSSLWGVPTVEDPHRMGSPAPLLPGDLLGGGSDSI
On to “Protein argonaute-2 (Homo sapiens), Q9UKV8 F587A”, for which the “effect of a mutation on the interaction” value was “decreasing interaction”.

Consider “Protein argonaute-2 (Homo sapiens), Q9UKV8 F653A”, for which the “effect of a mutation on the interaction” value was “disrupting interaction”.

With “Protein argonaute-2 (Homo sapiens), Q9UKV8 F858A”, the “effect of a mutation on the interaction” value was “decreasing interaction”.

Consider “Protein argonaute-2 (Homo sapiens), Q9UKV8 I592A”, for which the “effect of a mutation on the interaction” value was “disrupting interaction”.

With “Protein argonaute-2 (Homo sapiens), Q9UKV8 K533A”, the “effect of a mutation on the interaction” value is “disrupting interaction”.

Take “Protein argonaute-2 (Homo sapiens), Q9UKV8 Q545A”: the “effect of a mutation on the interaction” value is listed as “disrupting interaction strength”.

“Protein argonaute-2 (Homo sapiens), Q9UKV8 R583A”: the “effect of a mutation on the interaction” value is reported as “disrupting interaction”.

For “Protein argonaute-2 (Homo sapiens), Q9UKV8 R647A”, the “effect of a mutation on the interaction” value is on record as “disrupting interaction”.

Take “Protein argonaute-2 (Homo sapiens), Q9UKV8 R812A”: the “effect of a mutation on the interaction” value was “disrupting interaction”.

On to “Protein argonaute-2 (Homo sapiens), Q9UKV8 V615A”, for which the “effect of a mutation on the interaction” value is given as “decreasing interaction”.

In the case of “Protein argonaute-2 (Homo sapiens), Q9UKV8 V797A”, the “effect of a mutation on the interaction” value is “disrupting interaction”.

As for “Protein argonaute-2 (Homo sapiens), Q9UKV8 Y529A”, the “effect of a mutation on the interaction” value is recorded as “disrupting interaction”.

As to “Protein argonaute-2 (Homo sapiens), Q9UKV8 Y625A”, the “effect of a mutation on the interaction” value is “disrupting interaction”.

For the substance “Protein argonaute-2 (Homo sapiens), Q9UKV8 Y749A”, the “effect of a mutation on the interaction” value is recorded as “decreasing interaction”.

As to “Protein argonaute-2 (Homo sapiens), Q9UKV8 Y784A”, the “effect of a mutation on the interaction” value is recorded as “decreasing interaction”.

“Protein argonaute-2 (Homo sapiens), Q9UKV8 Y805A”: the “effect of a mutation on the interaction” value is “decreasing interaction”.
